From PMC10397247

T1: 4H2518-bN
T1 chain: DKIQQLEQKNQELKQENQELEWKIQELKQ

T2: 4H2585-bN
T2 chain: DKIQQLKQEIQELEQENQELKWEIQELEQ

T3: 4H264-bN
T3 chain: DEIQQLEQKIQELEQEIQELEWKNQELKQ

T4: 4H2760-bN
T4 chain: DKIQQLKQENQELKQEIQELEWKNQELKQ

T5: 4H2859-bN
T5 chain: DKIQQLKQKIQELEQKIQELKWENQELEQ

T6: 4H2931-bN
T6 chain: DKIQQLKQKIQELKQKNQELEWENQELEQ

T7: 4H3041-bN
T7 chain: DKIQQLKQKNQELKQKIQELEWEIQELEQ

T8: 4H3297-bN
T8 chain: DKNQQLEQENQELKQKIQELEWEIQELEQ

T9: 4H3364-bN
T9 chain: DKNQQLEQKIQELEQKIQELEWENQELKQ

T10: 4H3381-bN
T10 chain: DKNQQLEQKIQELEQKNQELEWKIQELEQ

T11: 4H349-bN
T11 chain: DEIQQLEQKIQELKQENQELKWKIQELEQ

T12: 4H56-bN
T12 chain: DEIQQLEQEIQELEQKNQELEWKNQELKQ

T13: 4H570-bH
T13 chain: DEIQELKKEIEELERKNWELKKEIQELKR

T14: 4H730-bN
T14 chain: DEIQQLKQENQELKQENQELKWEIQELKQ

T15: 4H796-bN
T15 chain: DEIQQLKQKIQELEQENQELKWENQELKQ

T16: 4H932-bN
T16 chain: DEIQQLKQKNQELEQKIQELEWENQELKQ

T17: 4H949-bN
T17 chain: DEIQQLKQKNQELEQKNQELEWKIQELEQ

T18: O15
T18 chain: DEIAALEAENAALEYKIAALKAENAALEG

T19: O16
T19 chain: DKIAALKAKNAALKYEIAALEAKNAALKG

T20: O2
T20 chain: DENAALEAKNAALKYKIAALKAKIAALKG

T21: O3
T21 chain: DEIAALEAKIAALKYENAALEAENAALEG

T22: O4
T22 chain: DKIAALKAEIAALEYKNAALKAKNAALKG

T23: O5
T23 chain: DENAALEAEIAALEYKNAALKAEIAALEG

T24: O6
T24 chain: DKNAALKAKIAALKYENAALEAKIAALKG

T25: O7
T25 chain: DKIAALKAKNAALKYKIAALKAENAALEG

T26: O8
T26 chain: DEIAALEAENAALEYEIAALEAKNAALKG

T27: O9
T27 chain: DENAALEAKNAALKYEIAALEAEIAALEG


Tests used:
Test in all cases: two-hybrid library CCNG1;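 further: natural log of median RNA to DNA barcode read ratio; higher means stronger binding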
4H2518-bN = target: T1, 4H2518-bN
4H2585-bN = target: T2, 4H2585-bN
4H264-bN = target: T3, 4H264-bN
4H2760-bN = target: T4, 4H2760-bN
4H2859-bN = target: T5, 4H2859-bN
4H2931-bN = target: T6, 4H2931-bN
4H3041-bN = target: T7, 4H3041-bN
4H3297-bN = target: T8, 4H3297-bN
4H3364-bN = target: T9, 4H3364-bN
4H3381-bN = target: T10, 4H3381-bN
4H349-bN = target: T11, 4H349-bN
4H56-bN = target: T12, 4H56-bN
4H570-bH = target: T13, 4H570-bH
4H730-bN = target: T14, 4H730-bN
4H796-bN = target: T15, 4H796-bN
4H932-bN = target: T16, 4H932-bN
4H949-bN = target: T17, 4H949-bN
O15 = target: T18, O15
O16 = target: T19, O16
O2 = target: T20, O2
O3 = target: T21, O3
O4 = target: T22, O4
O5 = target: T23, O5
O6 = target: T24, O6
O7 = target: T25, O7
O8 = target: T26, O8
O9 = target: T27, O9

| interaction score (O16) | interaction score (O2) | interaction score (O3) | interaction score (O4) | interaction score (O5) | interaction score (O6) | interaction score (O7) | interaction score (O8) | interaction score (O9) | Binder | other results |
| --- | --- | --- | --- | --- | --- | --- | --- | --- | --- | --- |
| – | – | – | – | – | – | – | – | – | DKIQQLEQKNQELKQENQELEWKIQELKQ [4H2518-bN] | interaction score (4H2518-bN): -0.0161; interaction score (4H2585-bN): 0.403; interaction score (4H264-bN): 1.11; interaction score (4H2760-bN): 0.227; interaction score (4H2859-bN): -0.834; interaction score (4H2931-bN): -0.539; interaction score (4H3041-bN): -0.522; interaction score (4H3297-bN): -0.555; interaction score (4H3364-bN): -0.536; interaction score (4H3381-bN): -0.272; interaction score (4H349-bN): -0.274; interaction score (4H56-bN): -0.0872; interaction score (4H570-bH): -2.15; interaction score (4H730-bN): 1.02; interaction score (4H796-bN): 0.473; interaction score (4H932-bN): -0.482; interaction score (4H949-bN): -0.152 |
| 1.41 | -2.21 | -2.17 | -1.8 | -1.45 | -2.48 | -0.707 | -1.73 | -2.28 | DEIAALEAENAALEYKIAALKAENAALEG [O15] | interaction score (O15): -1.57 |
| -2.69 | -2.29 | -1.85 | -1.89 | -1.91 | -1.46 | -1.81 | -0.596 | -2.26 | DKIAALKAKNAALKYEIAALEAKNAALKG [O16] | – |
